Numbering of substitutions follows the chain as printed.
T1: Activin B (UniProt P09529 293-407)
T1 sequence (looked up): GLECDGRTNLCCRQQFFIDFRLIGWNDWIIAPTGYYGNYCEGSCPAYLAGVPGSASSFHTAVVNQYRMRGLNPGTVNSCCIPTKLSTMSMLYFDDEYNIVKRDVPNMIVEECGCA

T2: Activin A (UniProt P08476 311-426)
T2 sequence (looked up): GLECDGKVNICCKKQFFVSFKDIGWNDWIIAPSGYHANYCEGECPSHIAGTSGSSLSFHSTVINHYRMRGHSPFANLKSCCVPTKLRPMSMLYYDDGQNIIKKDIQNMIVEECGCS

B1: ActRIIa/bΔ9 variant (SEQ ID NO: 58) (receptor)
chain: GAILGRSETQECLFYNANWELDRTNQTGVERCEGEKDKRLHCYATWRNISGSIEIVKKGCWLDDFNCYDRTDCVETKENPQVYFCCCEGNMCNEKFSYFPEMEVTQPTS
notes: Engineered extracellular ActRIIa variant; not shown: Fusion partner and its linker
B2: ActRIIa/bΔ9m2 variant (SEQ ID NO: 38) (receptor)
chain: B1 chain with F65I
notes: as for B1
B3: ActRIIa/bΔ9m4 variant (SEQ ID NO: 44) (receptor)
chain: B1 chain with R31P
notes: Engineered extracellular ActRIIa variant; not shown: Carrier and linker
B4: ActRIIa/bΔ9 min variant (SEQ ID NO: 6) (receptor)
chain: B1 chain with R31P, Y43F, R47K, F65I
notes: as for B1
B5: ActRIIa/bΔ9m3 variant (SEQ ID NO: 41) (receptor)
chain: B1 chain with Y43F
notes: as for B1
B6: ActRIIa/b variant (SEQ ID NO: 69) (receptor)
chain: B1 chain with D22E, K77E
notes: as for B3
B7: ActRIIa/bmax1 variant (SEQ ID NO: 70) (receptor)
chain: B1 chain with F14Y, D22E, K36Q, K77E
notes: as for B3
B8: ActRIIa/b+ variant (SEQ ID NO: 150) (receptor)
chain: B1 chain with D22E, K57A, K77E
notes: not shown: Fusion partner and its linker
B9: ActRIIb (SEQ ID NO: 74) (receptor)
chain: GRGEAETRECIYYNANWELERTNQSGLERCEGEQDKRLHCYASWRNSSGTIELVKKGCWLDDFNCYDRQECVATEENPQVYFCCCEGNFCNERFTHLPEAGGPEVTYEPPPTAPT
notes: also called Human ActRIIb, extracellular portion; not shown: Carrier and linker
B10: ActRIIa/bmax2 variant (SEQ ID NO: 71) (receptor)
chain: GAILGRSETQECLFYNANWELERTNQTGVERCEGEKDKRLHCYATWRNISGSIEIVKKGCWLDDFNCYDRTDCVETEENPQVYFCCCEGNMCNEKFSYFPEMEVTQPTSNP
notes: not shown: Carrier and linker
B11: ActRIIa/bmax3 variant (SEQ ID NO: 72) (receptor)
chain: GAILGRSETQECLFYNANWELERTNQTGVERCEGEKDKRLHCYATWRNISGSIEIVKKGCWLDDFNCYDRTDCVETEENPQVYFCCCEGNMCNEKFSYFPEMEVTQPTSNPVTPK
notes: not shown: Carrier and linker
B12: BMP-9 (ligand, UniProt Q9UK05 320-429, looked up)
chain: SAGAGSHCQKTSLRVNFEDIGWDSWIIAPKEYEAYECKGGCFFPLADDVTPTKHAIVQTLVHLKFPTKVGKACCVPTKLSPISVLYKDDMGVPTLKYHYEGMSVAECGCR
notes: also called bone morphogenetic protein 9
B13: growth differentiation factor 11 (GDF11) (ligand, UniProt O95390 299-407, looked up)
chain: NLGLDCDEHSSESRCCRYPLTVDFEAFGWDWIIAPKRYKANYCSGQCEYMFMQKYPHTHLVQQANPRGSAGPCCTPTKMSPINMLYFNDKQQIIYGKIPGMVVDRCGCS
B14: ActRIIb/a variant (SEQ ID NO: 149) (receptor)
chain: GRGEAETRECIFYNANWEKDRTNQSGLEPCYGDQDKRRHCFASWKNSSGTIELVKQGCWLDDINCYDRQECVAKKDSPEVYFCCCEGNFCNERFTHLPEAGGPEVTYEPPPTAPT
notes: Engineered extracellular ActRIIb variant; also called extracellular ActRIIb variant; not shown: Carrier and linker

These binders were tested against T1, Activin B (assay: SPR (Biacore 3000), receptor captured on chip, ligand in solution).

Kd	Binder
0.0123 nM	B1
0.104 nM	B2
0.254 nM	B3
0.088 nM	B4
0.0725 nM	B5
0.103 nM	B6
0.097 nM	B7
0.282 nM	B8
0.023 nM	B9
0.039 nM	B10
0.043 nM	B11

Each binder was assayed against T2, Activin A in the same assay as above.

Kd	Binder
0.213 nM	B1
0.17 nM	B2
0.375 nM	B3
0.31 nM	B4
0.071 nM	B5
0.542 nM	B6
0.232 nM	B7
0.242 nM	B8
0.063 nM	B9
0.135 nM	B10
0.089 nM	B11

What follows are binders tested against B13 in the same assay as above.

Kd	Binder
0.115 nM	B1
0.222 nM	B2
0.394 nM	B3
0.114 nM	B4
0.117 nM	B5
0.186 nM	B6
0.236 nM	B7
0.113 nM	B10
0.214 nM	B11

These binders were tested against B12 in the same assay as above.

Kd	Binder
10 nM	B1
13 to 18 nM	B2
14 to 20 nM	B3
17 nM	B4
1.2 nM	B5
4 nM	B6
5.6 nM	B7
26 nM	B8
5 nM	B10
3.3 nM	B11

What follows are binders tested against B9 in the same assay as above.

Kd	Binder
0.278 nM	B12
0.115 nM	B13

Each binder was assayed against T1, Activin B (assay: SPR (Biacore 3000), receptor captured on chip by anti-mouse antibody, ligand in solution).

binding result	Binder
no binding	B14

Each binder was assayed against T2, Activin A in the same assay as above.

binding result	Binder
no binding	B14

These binders were tested against B13 in the same assay as above.

binding result	Binder
no binding	B14

From patent US20190282663A1 (KEROS THERAPEUTICS, published 2019)
